# Data: publication PMC5725826, “Characterization of UGT716A1 as a Multi-substrate UDP:Flavonoid Glucosyltransferase Gene in Ginkgo biloba” (Frontiers in Plant Science, 2017)
# B1: UGT716A1 (Ginkgo biloba) (protein)
# chain: MEMAGGYIMVVPFHGQGHVFPCLELCKQLAARGVAVTIVASRSIRSSLQSIANHDASGLGVRIMELREATSEEQDAHPGPFLTDTLQEPFEEMLNNLAAEAAPLPLCVIGDVMVGWVTTVCDKFHIPRVPFFTSSACSIAFEYALWKHRPLDLKEDEAFAVPGFPESMPIALSDTLHRAPHPPDHHQRNPPPFPRRGHPPPPDRGHPPPFGHGGPPHGPPHPPTGPDSNPRSPPWMNGLNESSGFLVNTCRELEAPFIEYMVKETEKPVWAVGPLLPSSFWEGSITHDSSFRSRKSNIDEKQCLEWLNSKPPASVLYVSFGSEVGPSEEEIRELAYGLEAAQKPFIWVLQAGHHHPHHQEEAEEQDLLPAGFEHRLEGRGLIIRGWAPQLLILSHPSTGGFLSHCGWNSTVESIGHGVPLLAWPIRGDQHYNAKLLVAELKVAAMIHMPKDDGMVRREEIAKGVDVLLGSEHGEKLRERAVSLKLRLASCSGSSQKMLDAFVVHLSSLQKKL
# Legend:
# UGT92K1 = biological target: T1, UGT92K1 (Ginkgo biloba, UniProt A0A2Z2PC79); experiment: HPLC glucosylation assay, product identified with authentic standard; type: biochemical; conditions: 100 μM substrate; 4 mM UDP-glucose; Tris-HCl pH 7.0; 30°C; product genistein 7-O-glucoside
# T1 construct: gene UGT7
# T1 sequence (A0A2Z2PC79 1-496): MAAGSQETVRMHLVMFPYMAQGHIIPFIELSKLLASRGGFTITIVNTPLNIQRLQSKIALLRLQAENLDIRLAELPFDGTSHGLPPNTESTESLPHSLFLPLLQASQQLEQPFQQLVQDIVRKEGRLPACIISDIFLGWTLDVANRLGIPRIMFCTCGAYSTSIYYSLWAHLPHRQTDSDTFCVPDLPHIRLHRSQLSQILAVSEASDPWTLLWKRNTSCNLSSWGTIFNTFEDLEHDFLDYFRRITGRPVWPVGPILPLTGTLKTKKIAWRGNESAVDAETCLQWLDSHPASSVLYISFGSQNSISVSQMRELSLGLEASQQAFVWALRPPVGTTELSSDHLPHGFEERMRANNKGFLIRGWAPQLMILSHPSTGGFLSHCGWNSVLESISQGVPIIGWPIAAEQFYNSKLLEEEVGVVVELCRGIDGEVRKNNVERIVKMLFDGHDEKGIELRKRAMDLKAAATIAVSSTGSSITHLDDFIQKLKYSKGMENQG
# purified protein [1] = substrate: O=c1cc(-c2ccc(O)cc2)oc2cc(O)cc(O)c12; experiment: purified protein; conditions: 4 mM UDP-glucose, Tris-HCl pH 7.0, 30°C
# purified protein [2] = substrate: COC(=O)c1cc(O)c(O)c(O)c1; experiment: purified protein; type: biochemical, Ginkgo biloba; conditions: 4 mM UDP-glucose, Tris-HCl pH 7.0, 30°C
# purified protein [3] = substrate: O=C(O[C@@H]1Cc2c(O)cc(O)cc2O[C@@H]1c1cc(O)c(O)c(O)c1)c1cc(O)c(O)c(O)c1; experiment: purified protein; type: biochemical, Ginkgo biloba; conditions: 4 mM UDP-glucose, Tris-HCl pH 7.0, 30°C
# purified protein [4] = substrate: O=C(O[C@@H]1Cc2c(O)cc(O)cc2O[C@H]1c1cc(O)c(O)c(O)c1)c1cc(O)c(O)c(O)c1; experiment: purified protein; type: biochemical, Ginkgo biloba; conditions: 4 mM UDP-glucose, Tris-HCl pH 7.0, 30°C
# purified protein [5] = substrate: O=c1cc(-c2ccc(O)c(O)c2)oc2cc(O)cc(O)c12; experiment: purified protein; type: biochemical, Ginkgo biloba; conditions: 4 mM UDP-glucose, Tris-HCl pH 7.0, 30°C
# purified protein [6] = substrate: O=C(O[C@@H]1Cc2c(O)cc(O)cc2O[C@H]1c1ccc(O)c(O)c1)c1cc(O)c(O)c(O)c1; experiment: purified protein; type: biochemical, Ginkgo biloba; conditions: 4 mM UDP-glucose, Tris-HCl pH 7.0, 30°C
# purified protein [7] = substrate: O=c1c(-c2ccc(O)cc2)coc2cc(O)cc(O)c12; experiment: purified protein; type: biochemical, Ginkgo biloba; conditions: 4 mM UDP-glucose, Tris-HCl pH 7.0, 30°C
# purified protein [8] = substrate: O=c1c(O)c(-c2ccc(O)c(O)c2)oc2cc(O)cc(O)c12; experiment: purified protein; type: biochemical, Ginkgo biloba; conditions: 4 mM UDP-glucose, Tris-HCl pH 7.0, 30°C
Molecule,"HPLC glucosylation assay, product identified with authentic standard (UGT92K1)",Km (purified protein [1]),Km (purified protein [2]),Km (purified protein [3]),Km (purified protein [4]),Km (purified protein [5]),Km (purified protein [6]),Km (purified protein [7]),Km (purified protein [8])
O=c1c(-c2ccc(O)cc2)coc2cc(O)cc(O)c12 [genistein],recombinant UGT92K1 protein only displayed activity toward genistein,,,,,,,,
B1,,230 µM,390 µM,43 µM,3.2 µM,28 µM,14 µM,310 µM,10 µM
